Tests used:
[1] = target: NM fibers (amyloid fibers assembled from Sup35 NM; also used sonicated as seed) (Saccharomyces cerevisiae) (UniProt P05453); assay: seeded fibre elongation; sedimentation of soluble NM plus acrylodan wavelength-shift assay, Lineweaver-Burk plot (Michaelis-Menten model of soluble NM binding to seed and converting)
[2] = target: NM fibers (amyloid fibers assembled from Sup35 NM; also used sonicated as seed) (Saccharomyces cerevisiae) (UniProt P05453); assay: seeded fibre elongation; sedimentation of soluble NM plus acrylodan wavelength-shift assay, Lineweaver-Burk plot

NM fibers (amyloid fibers assembled from Sup35 NM; also used sonicated as seed) (Saccharomyces cerevisiae), sequence (P05453 1-253): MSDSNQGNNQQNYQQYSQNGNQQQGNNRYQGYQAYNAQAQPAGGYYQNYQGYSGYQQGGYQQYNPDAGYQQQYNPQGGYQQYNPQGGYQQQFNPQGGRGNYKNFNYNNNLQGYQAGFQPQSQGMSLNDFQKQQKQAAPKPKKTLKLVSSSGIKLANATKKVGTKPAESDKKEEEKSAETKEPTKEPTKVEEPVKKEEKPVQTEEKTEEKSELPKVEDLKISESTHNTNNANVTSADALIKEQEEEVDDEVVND

Substance: NM^T158C-acrylodan (soluble) (from UniProt P05453 1-253) (other; other documents disagree on this pair)
- Km [1]: 0.12 µM
- kconf/Km (conformational conversion efficiency) [2]: 42000 M⁻¹ s⁻¹

From patent US20090280480A1
